From the RNAGym collection of RNA variant scans (doi:10.1093/molbev/msab373) come the findings set out here.

B1: Azoarcus group I ribozyme (parent)
chain: GUGCCUUGCGCCGGGAAACCACGCAAGGGAUGGUGUCAAAUUCGGCGAAACCUAAGCGCCCGCCCGGGCGUAUGGCAACGCCGAGCCAAGCUUCGGCGCCUGCGCCGAUGAAGGUGUAGAGACUAGACGGCACCCACCUAAGGCAAACGCUAUGGUGAAGGCAUAGUCCAGGGAGUGGCGAAAGUCACACAAACCGG

The data set covers variants of B1. As to the kind of experiment: reverse-splicing fitness (ratio to wild type); higher = more active; in vitro selection; Mg2+ level not given. Summed up:
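An in vitro group I ribozyme library with randomized positions was T7-transcribed and gel-purified. In triplicate, 10 pmol RNA in EPPS pH 7.5 was reacted with 50 pmoles of a 30-nt RNA substrate for 1 h at 37 °C across several added MgCl2 levels (1–48 mM), then stopped with EDTA. Products were reverse transcribed from a substrate-complementary primer, PCR-amplified and sequenced (HiSeq 4000). Fitness is a variant's read proportion after selection over that before, normalised to wild type.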
On to C82G A111U A120U A145U, for which the reverse-splicing fitness came out at 0.0429.
The same measure for C82G A111U A145C C150U C169U U176C: 0.0098; for C82G A111U A145C C150U C169U U176G: 0.00613.
The same measure for C82G A111U A145C C150U C169U U176A: 0.0136; for C82G A111U A120U C150A C169U: 0.00448.
The same measure for C82G A111U A120U C150A C169A: 0.0047.
Turning to C82G A111U A120U C150A C169G, the reverse-splicing fitness turned out to be 0.00506.
The same measure for C82G A111U A120U C150U C169G: 0.00565; for C82G A111U A120U C150U C169A: 0.0056.
The same measure for C82G A111U A120U C150U C169U: 0.00485.
For C82G A111U A145G C150U U176G, the reverse-splicing fitness was 0.0447.
The same measure for C82G A111U A145G C150U U176A: 0.144; for C82G A111U A145G C150U U176C: 0.196.
The same measure for C82G A111U A120U A145U C169G U176C: 0.0026; for C82G A111U A120U A145U C169G U176A: 0.00265; for C82G A111U A120U A145U C169G U176G: 0.00186.
Consider C82G A111U A120U A145G C150G U176C, for which the reverse-splicing fitness is 0.00861.
The same measure for C82G A111U A120U A145G C150G U176A: 0.00648.
The same measure for C82G A111U A120U A145G C150G U176G: 0.00462; for C82G A111U A145C U176A: 0.19; for C82G A111U A145C U176C: 0.224.
The same measure for C82G A111U A145C U176G: 0.0756; for C82G A111U A145G C169A: 0.0087.
In the case of C82G A111U A145G C169U, the reverse-splicing fitness came out at 0.0131.
The same measure for C82G A111U A145G C169G: 0.00953.
The same measure for C82G A111U A145G C150A U176G: 0.0141.
The same measure for C82G A111U A145G C150A U176C: 0.0447; for C82G A111U A145G C150A U176A: 0.0322; for C82G A111U A145C C150A: 0.0198.
Take C82G A111U A145C C150U: the reverse-splicing fitness was 0.0722.
The same measure for C82G A111U A145C C150G: 0.0354; for C82G A111U A120U A145G C150U: 0.0351; for C82G A111U A120U A145G C150U U176C: 0.0151.
Turning to C82G A111U A120U A145G C150U U176A, the reverse-splicing fitness was found to be 0.0103.
The same measure for C82G A111U A120U A145G C150U U176G: 0.00433; for C82G A111U A145U C150A C169A U176G: 0.00732; for C82G A111U A145U C150A C169A U176C: 0.0126.
The same measure for C82G A111U A145U C150A C169A U176A: 0.0149.
The same measure for C82G A111U A120U A145U C169U U176A: 0.00233.
Regarding C82G A111U A120U A145U C169U U176G, the reverse-splicing fitness was found to be 0.00177.
Turning to C82G A111U A120U A145U C169U U176C, the reverse-splicing fitness stood at 0.00275.
Take C82G A111U A120U A145G U176C: the reverse-splicing fitness came out at 0.0173.
The same measure for C82G A111U A120U A145G U176A: 0.0121; for C82G A111U A120U A145G U176G: 0.00338.
For the variant C82G A111U A120U A145G C150G C169U, the reverse-splicing fitness stood at 0.00767.
The same measure for C82G A111U A145U C150G C169U: 0.00956.
Consider C82G A111U A145U C150G C169A, for which the reverse-splicing fitness came to 0.00951.
In the case of C82G A111U A145U C150G C169G, the reverse-splicing fitness was 0.00766.
The same measure for C82G A111U A120U A145U C150U C169A U176G: 0.00252; for C82G A111U A120U A145U C150U C169A U176C: 0.0027; for C82G A111U A120U A145U C150U C169A U176A: 0.00283.
For the variant C82G A111U A145G C150G C169G, the reverse-splicing fitness worked out at 0.00715.
The same measure for C82G A111U A145G C150G C169A: 0.00977; for C82G A111U A145G C150G C169U: 0.00972.
The same measure for C82G A111U A120U C169U: 0.00476; for C82G A111U A120U C169A: 0.0043.
The same measure for C82G A111U A120U C169G: 0.00462.
Consider C82G A111U A145C C150G C169A, for which the reverse-splicing fitness turned out to be 0.00892.
For C82G A111U A145C C150G C169U, the reverse-splicing fitness is 0.00915.
The same measure for C82G A111U A145C C150G C169G: 0.00784; for C82G A111U A120U C150U C169A U176G: 0.00241.
Turning to C82G A111U A120U C150U C169A U176A, the reverse-splicing fitness came to 0.00512.
The same measure for C82G A111U A120U C150U C169A U176C: 0.00328.
The same measure for C82G A111U A120U A145G C150G C169U U176G: 0.00391.
C82G A111U A120U A145G C150G C169U U176C: the reverse-splicing fitness amounted to 0.00721.
The same measure for C82G A111U A120U A145G C150G C169U U176A: 0.0076; for C82G A111U A120U C150G C169U U176C: 0.00541; for C82G A111U A120U C150G C169U U176G: 0.00257.
The same measure for C82G A111U A120U C150G C169U U176A: 0.00329.
For C82G A111U A145G C169G U176A, the reverse-splicing fitness came to 0.0187.
The same measure for C82G A111U A145G C169G U176G: 0.00557; for C82G A111U A145G C169G U176C: 0.0258.
The same measure for C82G A111U A145C C169A: 0.00732; for C82G A111U A145C C169U: 0.0121; for C82G A111U A145C C169G: 0.00826.
The same measure for C82G A111U A120U C150A C169A U176A: 0.00677; for C82G A111U A120U C150A C169A U176G: 0.00233; for C82G A111U A120U C150A C169A U176C: 0.00429.
Regarding C82G A111U A120U A145U C150U C169G, the reverse-splicing fitness was 0.00327.
Turning to C82G A111U A120U A145U C150U C169U, the reverse-splicing fitness is 0.00381.
Regarding C82G A111U A120U A145U C150U C169A, the reverse-splicing fitness came out at 0.00323.
The same measure for C82G A111U A145G C169A U176C: 0.0263; for C82G A111U A145G C169A U176G: 0.00602; for C82G A111U A145G C169A U176A: 0.0174.
